First the molecules themselves.
T1: GST-DCAF10 (UniProt Q5QP82 1-559)
T1 construct: DCAF10, full length; the UniProt entry is printed for the AlphaFold 3 model of the same protein; cloning and purification are in the Supplementary Methods; also called purified full-length GST-DCAF10; source: purified
T1 sequence (looked up): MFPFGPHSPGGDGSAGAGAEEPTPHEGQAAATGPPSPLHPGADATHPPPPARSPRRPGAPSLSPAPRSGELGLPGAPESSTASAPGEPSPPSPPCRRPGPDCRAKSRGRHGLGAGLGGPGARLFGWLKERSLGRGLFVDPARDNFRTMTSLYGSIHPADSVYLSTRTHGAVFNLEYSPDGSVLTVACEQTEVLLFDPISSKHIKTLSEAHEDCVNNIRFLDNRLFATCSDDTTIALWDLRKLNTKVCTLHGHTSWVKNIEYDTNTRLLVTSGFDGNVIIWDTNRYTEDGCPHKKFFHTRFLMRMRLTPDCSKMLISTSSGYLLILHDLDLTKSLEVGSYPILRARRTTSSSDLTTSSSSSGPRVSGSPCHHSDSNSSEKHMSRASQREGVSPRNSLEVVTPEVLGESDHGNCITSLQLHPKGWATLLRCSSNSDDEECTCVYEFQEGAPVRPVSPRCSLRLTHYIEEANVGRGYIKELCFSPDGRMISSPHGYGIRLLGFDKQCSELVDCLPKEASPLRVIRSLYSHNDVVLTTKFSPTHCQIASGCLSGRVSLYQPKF

T2: Ac-Lyn^G2A peptide (human, UniProt P07948 2-11, G2A)
T2 construct: Lyn, N-terminal 10-mer without the initiator Met, G2A; Lys3 spacer that carries the C-terminal biotin; also called Ac-Ala peptide; source: synthetic peptide
T2 peptide: Ac-ACIKSKGKDSKKK-biotin

B1: Nt-acetylated Fyn peptide (peptide)
peptide: Ac-GCVQCKDKEAKKK-biotin
modifications: cysteine pairing not given here
notes: Fyn, N-terminal 10-mer without the initiator Met; Lys3 spacer that carries the C-terminal biotin; also called Nt-Ac Fyn; Ac-Fyn; source: synthetic peptide
B2: DDB1- and CUL4A-associated factor 10 (natural protein, human (endogenous in HeLa and DLD-1), UniProt Q5QP82 1-559, looked up)
chain: T1 sequence (looked up)
notes: DCAF10, endogenous protein of human cell lysates; also called DCAF10; WDR32; source: endogenous, HeLa lysate; endogenous, DLD-1 Lyn KO Flp-In T-REx cell lysate
B3: Nt-acetylated Src peptide (peptide)
peptide: Ac-GSNKSKPKDAKKK-biotin
notes: Src, N-terminal 10-mer without the initiator Met; Lys3 spacer that carries the C-terminal biotin; also called Nt-Ac Src; Ac-Src; source: synthetic peptide
B4: Nt-acetylated Lyn peptide (peptide)
peptide: Ac-GCIKSKGKDSKKK-biotin
notes: Lyn, N-terminal 10-mer without the initiator Met; Lys3 spacer that carries the C-terminal biotin; also called Nt-Ac Lyn; Ac-Lyn; source: synthetic peptide

The target of one experiment is T1, GST-DCAF10. The experiment in a line: pull-down; Nt-peptides bound to streptavidin beads incubated with purified GST-DCAF10 or GST alone; Western blots against GST, DCAF10 and streptavidin; n = 3. To be noted: both partners purified. On the technique in general: A western blot detects proteins with antibodies after separation by electrophoresis.
The target of experiment [1] is B3. The experiment in a line: affinity purification with mass spectrometry; biotinylated 10-mer Nt-peptides on magnetic streptavidin beads incubated with HeLa lysate; retained proteins digested on bead and quantified label-free by LC-MS (DIA); pairwise comparison of two peptides; n = 3. The following applies: one partner purified.
The target of experiment [2] is B4. The experiment is described as above. The following applies: one partner purified.
The target of another experiment is T2, Ac-Lyn^G2A peptide. Described as above. The following applies: one partner purified.

On to B1, for which the binding result in the experiment with GST-DCAF10 is on record as “binds”.
In the case of B2, the “log2 fold change (Nt-Ac against Nt-free Src peptide, Fig. 1c)” value in experiment [1] is roughly 5 log2. For the same molecule, the “fold stronger than Ac-THOC7” value in experiment [2] is roughly 57 fold. Besides, the “fold lower than the Ac-Gly peptide (Ac-Lyn^WT)” value in the experiment with Ac-Lyn^G2A peptide amounted to 15 fold.
As for B3, the binding result with GST-DCAF10 is recorded as “binds”.
Regarding B4, the binding result with GST-DCAF10 is “binds”.

Values taken from publication PMC12775124, “CUL4A-DDB1-DCAF10 is an N-recognin for N-terminally acetylated Src kinases” (Nature Communications, 2026).
